T1: HsRad52 protein (HsRad521-212) (Homo sapiens, UniProt P43351)
T1 construct: hexahistidine (N, cleaved yes); made in house; host or cells: E. coli JM109 (DE3), pET15-b
T1 sequence (P43351 1-212): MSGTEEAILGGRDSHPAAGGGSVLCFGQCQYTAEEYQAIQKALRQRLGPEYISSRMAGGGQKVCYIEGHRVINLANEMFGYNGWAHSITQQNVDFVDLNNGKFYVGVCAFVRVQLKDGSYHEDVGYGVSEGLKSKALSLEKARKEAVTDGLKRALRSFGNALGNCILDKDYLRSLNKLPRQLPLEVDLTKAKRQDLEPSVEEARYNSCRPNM

T2: HsRad52(1-212) wild type (Homo sapiens, UniProt P43351 SEQ:1-212)
T2 sequence: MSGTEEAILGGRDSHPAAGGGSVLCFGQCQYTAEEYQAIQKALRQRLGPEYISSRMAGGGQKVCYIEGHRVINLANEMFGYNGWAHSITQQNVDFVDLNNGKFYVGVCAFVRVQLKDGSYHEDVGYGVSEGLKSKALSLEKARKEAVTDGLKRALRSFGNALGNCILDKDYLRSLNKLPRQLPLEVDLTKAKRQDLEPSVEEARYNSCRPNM


Each molecule was assayed against T1, HsRad52 protein (HsRad521-212) (assay: Screening for HsRad52-binding compounds by one-dimensional 1H-NMR). Conditions: calculated from signal intensity of the NMR spectrum; binding force of Compound A defined as 1.
Method: Among the ligand candidate compounds obtained in Example 8, one candidate compound was in view of the binding free energy change (ΔG) obtained by AutoDock and solubility. The compound was dissolved in DMSO-d6 to be adjusted to 455.7 μM. The HsRad521-212 protein prepared in Example 3 was dissolved to 152 μM using buffer solution A (dissolved in heavy water to 10 mM Tris-dll, pH 7.5)/200 mM KCl). Using them, two types of samples namely the ligand candidate compound alone and the ligand candidate compound to which the HsRad52 protein was added at 1:1 were prepared.
The final concentration of the ligand candidate compound is 21.7 μM.
The final concentrations of the ligand candidate compound and the HsRad52 protein are 21.7 μM, respectively.
One-dimensional ^1H-NMR of the individual samples was measured, to observe whether or not any change existed between prior to and after the addition of HsRad52 protein. Consequently, the NMR spectrum of a sample of ID AK968-41170131 with a chemical name of cis-6-[4-(4-isobutyl-phenyl)-5-methyl-thiazol-2-ylcarbamoyl]-3,4-dimethyl-cyclohex-3-enec arboxylic acid (Compound A, −11.71 kcal/mol) as such ligand candidate compound is shown in FIGS. 5 through 7. […] In FIG. 6, a slight increase of the base line due to the mixing with the protein can be observed, but apparently, Compound A-derived two signals around 7.5 ppm disappeared.
Herein, all the NMR spectra were taken in deuterium, using Bruker DRX500 NMR spectrophotometer at 298 K.
Using such method, the plural ligand candidate compounds obtained in Example 8 were adjusted to various concentrations to measure the NMR spectra. Compounds detected with the interaction with HsRad52 are shown below in Table 4. Herein, the strength of a binding force relatively calculated from the signal intensity of the NMR spectrum is shown as relative binding force, provided that the binding force of the Compound A is defined as 1.

Row | Molecule | Relative Binding force
1 | CC1=C(C)CC(C(=O)Nc2nc(-c3ccc(C)cc3C)c(C)s2)C(C(=O)O)C1 (stereo not drawn) [D, 6-[4-(2,4-Dimethyl-phenyl)-5-methyl-thiazol-2-ylcarbamoyl]-3,4-dimethyl-cyclohex-3-enecarboxylic acid] | 0.2
2 | CCCc1ccc(-c2nc(NC(=O)C3CC(C)=C(C)CC3C(=O)O)sc2C)cc1 (stereo not drawn) [E, 3,4-Dimethyl-6-[5-methyl-4-(4-propyl-phenyl)-thiazol-2-ylcarbamoyl]-cyclohex-3-enecarboxylic acid] | 0.5
3 | CCCCc1ccc(-c2nc(NC(=O)C3C4CCC(O4)C3C(=O)O)sc2C)cc1 (stereo not drawn) [C, 3-[4-(4-Butyl-phenyl)-5-methyl-thiazol-2-ylcarbamoyl]-7-oxa-bicyclo[2.2.1]heptane-2-carboxylic acid] | 0.5
4 | CC1=C(C)CC(C(=O)Nc2nc(-c3ccc(C(C)C)cc3)c(C)s2)C(C(=O)O)C1 (stereo not drawn) [Compound B, 6-[4-(4-Isopropyl-phenyl)-5-methyl-thiazol-2-ylcarbamoyl]-3,4-dimethyl-cyclohex-3-enecarboxylic acid] | 0.5

The molecules below were run against T2, HsRad52(1-212) wild type (assay: EMSA; 50 mM Hepes-KOH pH 7.5, 40 mM KCl, 1 mM MgCl2, 37 C, glutaraldehyde fixed; 0.25-2 uM protein; complex formation inhibited by Compound A). Conditions: tags: His6 removed by thrombin; chain copies: 11 (undecameric ring, stated); label: 5'-32P.
Method: For gel shift assay, a reaction mixtures containing final concentratins of 50 mM Hepes-KOH (pH 7.5), 40 mM KCl, 1 mM MgCl₂, 0.1 mg/ml BSA, 1 mM DTT, 2% glycerol and 0.25 to 2 μM mutants of HsRad52₁₋₂₁₂ was used. For single-stranded DNA binding assay, 1 μl of 1 μM ³²P-labeled SAT-1 single-stranded DNA (nucleotide) was mixed with 9 μl of the reaction mixture, which was incubated at 37° C. for 5 minutes. Subsequently, 1 μl of 12% glyceraldehyde solution was added, to immobilize HsRad52 and the single-stranded DNA. After incubating for 20 minutes, a 6-fold volume of staining solution for electrophoresis was added. The reaction mixture was resolved by 1% agarose gel electrophoresis in 0.5×TBE buffer at 3.3 V/cm and ambient temperature. After electrophoresis, the gel was dried for detection by autoradiography. The amount of the free single-stranded DNA was assayed by an image analyzer BAS2500 manufactured by Fuji Film.
Subsequently, the mixture was fixed with 0.2% glutaraldehyde for 20 minutes and electrophoresed on 1% agarose gel.

Row | Molecule | binding result
5 | ATTTCATGCTAGACAGAAGAATTCTCAGTAACTTCTTTGTGCTGTGTGTA (ssDNA) [SAT-1 50-mer] | binds

The molecules below were run on SAT-1 single-stranded DNA (assay: Gel shift assay: single-stranded DNA binding of HsRad521-212 point mutants). Conditions: 0.25 to 2 μM mutant; compared with wild type HsRad521-212.
Method: The single-stranded and double-stranded DNAs binding activities of the six types of point mutants thus prepared from HsRad521-212 were detected by gel shift assay method. The substrate DNA used by the method was prepared as described below. The pGsat4 of double-stranded DNA was prepared by inserting a 198-bp DNA fragment from human α-satellite into a plasmid PGEM-T East vector (manufactured by Promega). The 3.2-kb plasmid DNA was prepared by a gentle lysis method using sarcosyl, without alkali modification of the host E. coli, so as to avoid the irreversible denaturation. As the single-stranded DNA, a 50-base oligonucleotide purified by HPLC as shown in SEQ ID NO:2 was purchased from Roche Biochemical.
The 5′ terminus of the oligonucleotide was labeled with radioactivity in the presence of [γ^32P] ATP using T4 polynucleotide kinase (New England Biolabs) and then purified on a column Chromaspin-10 (manufactured by Clontech).
For gel shift assay, a reaction mixtures containing final concentratins of 50 mM Hepes-KOH (pH 7.5), 40 mM KCl, 1 mM MgCl2, 0.1 mg/ml BSA, 1 mM DTT, 2% glycerol and 0.25 to 2 μM mutants of HsRad521-212 was used. For single-stranded DNA binding assay, 1 μl of 1 μM ^32P-labeled SAT-1 single-stranded DNA (nucleotide) was mixed with 9 μl of the reaction mixture, which was incubated at 37° C. for 5 minutes. Subsequently, 1 μl of 12% […] solution was added, to immobilize HsRad52 and the single-stranded DNA. After incubating for 20 minutes, a 6-fold volume of staining solution for electrophoresis was added. The reaction mixture was resolved by 1% agarose gel electrophoresis in 0.5×TBE buffer at 3.3 V/cm and ambient temperature. After electrophoresis, the gel was dried for detection by autoradiography. The amount of the free single-stranded DNA was assayed by an image analyzer BAS2500 manufactured by Fuji Film. […] Compared with the wild type HsRad521-212, the single-stranded DNA binding activity of all of the point mutants was lowered.

Row | Molecule | Single-stranded DNA binding activity
6 | R55A: point mutant of HsRad521-212, arginine at position 55 substituted with alanine (protein) MSGTEEAILGGRDSHPAAGGGSVLCFGQCQYTAEEYQAIQKALRQRLGPEYISSAMAGGGQKVCYIEGHRVINLANEMFGYNGWAHSITQQNVDFVDLNNGKFYVGVCAFVRVQLKDGSYHEDVGYGVSEGLKSKALSLEKARKEAVTDGLKRALRSFGNALGNCILDKDYLRSLNKLPRQLPLEVDLTKAKRQDLEPSVEEARYNSCRPNMALGHPQLQQVTSPSRPSHAVIPADQDCSSRSLSSSAVESEATHQRKLRQKQLQQQFRERMEKQQVRVSTPSAEKSEAAPPAPPVTHSTPVTVSEPLLEKDFLAGVTQELIKTLEDNSEKWAVTPDAGDGVVKPSSRADPAQTSDTLALNNQMVTQNRTPHSVCHQKPQAKSGSWDLQTYSADQRTTGNWESHRKSQDMKKRKYDPS | lost most of the binding activity to the single-stranded DNA
7 | R70A: point mutant of HsRad521-212, arginine at position 70 substituted with alanine (protein) MSGTEEAILGGRDSHPAAGGGSVLCFGQCQYTAEEYQAIQKALRQRLGPEYISSRMAGGGQKVCYIEGHAVINLANEMFGYNGWAHSITQQNVDFVDLNNGKFYVGVCAFVRVQLKDGSYHEDVGYGVSEGLKSKALSLEKARKEAVTDGLKRALRSFGNALGNCILDKDYLRSLNKLPRQLPLEVDLTKAKRQDLEPSVEEARYNSCRPNMALGHPQLQQVTSPSRPSHAVIPADQDCSSRSLSSSAVESEATHQRKLRQKQLQQQFRERMEKQQVRVSTPSAEKSEAAPPAPPVTHSTPVTVSEPLLEKDFLAGVTQELIKTLEDNSEKWAVTPDAGDGVVKPSSRADPAQTSDTLALNNQMVTQNRTPHSVCHQKPQAKSGSWDLQTYSADQRTTGNWESHRKSQDMKKRKYDPS | lost most of the binding activity to the single-stranded DNA
8 | H69A: point mutant of HsRad521-212, histidine at position 69 substituted with alanine (protein) MSGTEEAILGGRDSHPAAGGGSVLCFGQCQYTAEEYQAIQKALRQRLGPEYISSRMAGGGQKVCYIEGARVINLANEMFGYNGWAHSITQQNVDFVDLNNGKFYVGVCAFVRVQLKDGSYHEDVGYGVSEGLKSKALSLEKARKEAVTDGLKRALRSFGNALGNCILDKDYLRSLNKLPRQLPLEVDLTKAKRQDLEPSVEEARYNSCRPNMALGHPQLQQVTSPSRPSHAVIPADQDCSSRSLSSSAVESEATHQRKLRQKQLQQQFRERMEKQQVRVSTPSAEKSEAAPPAPPVTHSTPVTVSEPLLEKDFLAGVTQELIKTLEDNSEKWAVTPDAGDGVVKPSSRADPAQTSDTLALNNQMVTQNRTPHSVCHQKPQAKSGSWDLQTYSADQRTTGNWESHRKSQDMKKRKYDPS | lost most of the binding activity to the single-stranded DNA
9 | Y65A: point mutant of HsRad521-212, tyrosine at position 65 substituted with alanine (protein) MSGTEEAILGGRDSHPAAGGGSVLCFGQCQYTAEEYQAIQKALRQRLGPEYISSRMAGGGQKVCAIEGHRVINLANEMFGYNGWAHSITQQNVDFVDLNNGKFYVGVCAFVRVQLKDGSYHEDVGYGVSEGLKSKALSLEKARKEAVTDGLKRALRSFGNALGNCILDKDYLRSLNKLPRQLPLEVDLTKAKRQDLEPSVEEARYNSCRPNMALGHPQLQQVTSPSRPSHAVIPADQDCSSRSLSSSAVESEATHQRKLRQKQLQQQFRERMEKQQVRVSTPSAEKSEAAPPAPPVTHSTPVTVSEPLLEKDFLAGVTQELIKTLEDNSEKWAVTPDAGDGVVKPSSRADPAQTSDTLALNNQMVTQNRTPHSVCHQKPQAKSGSWDLQTYSADQRTTGNWESHRKSQDMKKRKYDPS | lost most of the binding activity to the single-stranded DNA
